From patent US20180298422A1

Biological target: Taq DNA polymerase (Thermus aquaticus) (UniProt P19821)
Experiment: cell-based or functional assay

UniProt P19821, sequence (P19821 whole entry): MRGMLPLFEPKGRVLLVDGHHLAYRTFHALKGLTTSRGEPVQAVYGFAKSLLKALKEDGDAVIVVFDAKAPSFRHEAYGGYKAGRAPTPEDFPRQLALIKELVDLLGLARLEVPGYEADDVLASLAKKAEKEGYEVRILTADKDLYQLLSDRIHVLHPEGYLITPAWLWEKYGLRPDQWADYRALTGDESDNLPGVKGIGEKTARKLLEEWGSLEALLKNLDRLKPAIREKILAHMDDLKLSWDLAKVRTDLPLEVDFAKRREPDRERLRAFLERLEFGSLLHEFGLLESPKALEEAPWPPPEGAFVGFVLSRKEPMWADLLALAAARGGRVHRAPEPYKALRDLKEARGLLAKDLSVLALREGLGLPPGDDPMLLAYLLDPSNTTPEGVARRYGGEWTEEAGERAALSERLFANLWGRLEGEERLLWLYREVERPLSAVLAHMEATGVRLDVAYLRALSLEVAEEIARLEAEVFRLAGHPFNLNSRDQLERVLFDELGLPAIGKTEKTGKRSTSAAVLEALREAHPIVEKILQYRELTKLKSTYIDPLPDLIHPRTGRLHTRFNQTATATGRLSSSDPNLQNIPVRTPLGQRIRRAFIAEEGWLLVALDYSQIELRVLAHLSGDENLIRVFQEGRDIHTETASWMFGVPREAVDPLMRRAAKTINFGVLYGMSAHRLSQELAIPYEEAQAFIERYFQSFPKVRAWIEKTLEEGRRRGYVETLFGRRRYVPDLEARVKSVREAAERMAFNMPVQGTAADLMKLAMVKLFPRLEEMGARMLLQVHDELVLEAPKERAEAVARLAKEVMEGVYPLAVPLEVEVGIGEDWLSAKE

reactivation time of Taq DNA polymerase at 95 C in real-time PCR: < 0.5 min
Substance: JumpStart Antibody (Sigma Aldrich)
